Test results taken from US20250085298A1 (TRITON SYSTEMS, published 2025).
Positions count from the first letter of the chain named.

T1: rabbit α-crystallin A (CRYAA), native protein in rabbit intraocular fluid (rabbit, UniProt P02493 1-173, limits assumed)
T1 construct: Analyte of the lateral flow assay in rabbit samples; also called Crystallin-αA; αA-Crystallin
T1 sequence (looked up): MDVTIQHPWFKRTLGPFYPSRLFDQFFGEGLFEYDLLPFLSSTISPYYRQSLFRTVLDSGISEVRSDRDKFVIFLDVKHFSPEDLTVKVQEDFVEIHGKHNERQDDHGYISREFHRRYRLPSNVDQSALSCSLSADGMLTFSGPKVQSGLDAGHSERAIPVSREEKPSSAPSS

B1: MAB1601 (Conjugate Ab; target recognition element) (antibody, mouse IgG1, kappa, V domains shown)
VH: EVKLQESGPSLVKPSQTLSLTCSVTGDSITSGYWNWIRKFPGNKLEYMGYISYSGSTYFNPSLKSRISITRDTSKNQYYLQLNSVTTEDTATYYCSTGFAYWGQGTLVTVSA
VL: DIVMSQSPSSLAVSVGEKVIMRCNSSQSLLYSGNRENYLAWYQQKPGQSPNLLIYWASRRASGVPDRFAGGGSGTDFTLTISSVKAEDLAVYYCQHYYNYPLTFGAGTRLELKR
notes: Custom anti-CRYAA monoclonal antibody made in mice against the modified C-terminal CRYAA immunogen; In the assay its amines were coupled to carboxyl gold nanoparticles by EDC/sNHS chemistry; also called conjugate antibody; upstream target recognition element
B2: MAB1301 (Test Line Ab; test element) (antibody, mouse IgG1, kappa, V domains shown)
VH: EVKLQESGPSLVRPGASVKMSCKASGYTFTSYNMHWVKQTPRQGLEWIGAIYPGNGDTSYNQKFKGKATLTVDKSSSTAYMQLSSLTSEDSAVYFCARVVYYSNSYWYFDVWGTGTTVTVSA
VL: B1 VL with G71S
notes: Custom anti-CRYAA monoclonal antibody made in mice; It was immobilised on the nitrocellulose test line; also called MAB1301 T-line; test-line antibody

How the values were obtained:
[1] = target: T1, rabbit α-crystallin A (CRYAA), native …; test: lateral flow sandwich strip, MAB1601-AuNP conjugate with MAB1301 test line; swab of rabbit eye, Arm 3: 3 mm full-thickness laceration, AC/limbus, no confounder
Experimental: (§1) The expected results were that either one, or two, distinct red lines would form on the readout area of the test strip. The bottom half of the readout area on the nitrocellulose strip was expected to always show a red line (control), while appearance of the second line confirmed a positive result. The results were documented and whole test strip was imaged after removing the top of its plastic casing. The test strips were labelled and shipped on cold packs. For the second sample, 10-30 μL (as much as possible up to 30 μL) of the remaining ocular film was drawn by pipette and deposited in a microcentrifuge tube labeled with identities corresponding to the test strips. To this liquid sample, an equal volume of RNAlater solution was added and the sample was stored at −80° C. until shipment to the client on dry ice. Following sedation, rabbits were euthanized by intravenous barbiturate overdose. Euthasol® was delivered via the marginal ear vein at a concentration of 390 mg/ml, and a dose of 87 mg/kg. Following confirmation of euthanasia, whole corneas with sclera rims were collected and immediately placed in PBS. The medium was then exchanged for freshly made 4% PFA and tissue was fixed at room temperature for 23 hours. The tissue was then embedded in paraffin and shipped for further analysis. […]

[2] = target: T1, rabbit α-crystallin A (CRYAA), native …; test: lateral flow sandwich strip, MAB1601-AuNP conjugate with MAB1301 test line; swab of rabbit eye, Arm 9: 1 mm full-thickness puncture, peripheral cornea, no confounder
Experimental: as §1

| binding result [1] | binding result [2] | Binder |
| --- | --- | --- |
| binds |  | B1 |
|  | binds | B2 |
